# Measurements taken from PMC4916044.
# Molecular target: endogenous NFκB2 p100 (mouse (endogenous in NFκB2+/+ MEFs)) (UniProt Q9WTK5)
# Test: immunodepletion
# Chain of UniProt Q9WTK5 (Q9WTK5 whole entry): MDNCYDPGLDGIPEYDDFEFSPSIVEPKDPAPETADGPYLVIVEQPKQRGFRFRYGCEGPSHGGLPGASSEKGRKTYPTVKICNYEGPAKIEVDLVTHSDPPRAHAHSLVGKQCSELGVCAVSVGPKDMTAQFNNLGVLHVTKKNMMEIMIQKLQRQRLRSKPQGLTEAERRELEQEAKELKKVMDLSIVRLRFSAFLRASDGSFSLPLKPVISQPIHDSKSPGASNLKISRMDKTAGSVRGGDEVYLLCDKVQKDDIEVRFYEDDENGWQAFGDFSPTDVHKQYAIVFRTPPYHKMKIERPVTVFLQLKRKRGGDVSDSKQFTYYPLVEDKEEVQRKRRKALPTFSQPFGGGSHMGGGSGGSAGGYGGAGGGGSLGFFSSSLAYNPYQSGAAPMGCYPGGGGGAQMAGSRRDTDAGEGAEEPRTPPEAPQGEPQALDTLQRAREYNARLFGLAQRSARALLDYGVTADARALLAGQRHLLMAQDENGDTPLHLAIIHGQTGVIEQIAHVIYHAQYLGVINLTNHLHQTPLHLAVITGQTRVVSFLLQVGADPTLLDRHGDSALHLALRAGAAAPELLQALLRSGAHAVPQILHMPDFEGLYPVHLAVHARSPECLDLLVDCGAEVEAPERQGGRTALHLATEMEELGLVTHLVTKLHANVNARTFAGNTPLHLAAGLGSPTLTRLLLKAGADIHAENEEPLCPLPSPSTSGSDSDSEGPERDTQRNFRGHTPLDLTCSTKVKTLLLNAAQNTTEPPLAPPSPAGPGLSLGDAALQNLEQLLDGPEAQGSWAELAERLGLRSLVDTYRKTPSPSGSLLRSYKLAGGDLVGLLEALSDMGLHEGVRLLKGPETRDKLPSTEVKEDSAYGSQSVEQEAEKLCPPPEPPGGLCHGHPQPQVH
substance,measurement,value
endogenous ERK2 (from UniProt P63085 1-358) (natural protein),percent of endogenous ERK2 pulled down with p100 (immunodepletion),46%
